Holding throughout (type): biochemical
Data set [1] is described as follows: HTP-analysis of supernatants pretreated with base (MUGal hydrolysis). The conditions noted are these: activity of the variant/activity of Rd3BB (SEQ ID NO: 13); challenge at pH 9.7. In short, it runs like this: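 Fluorescence of released 4-MU (Ex 355 nm, Em 448 nm) after carbonate quench reports MUGal hydrolysis by GLA variants secreted from INVSc1 yeast. Before the acidic (pH 4.3-4.8) 30-180 min reaction at 37° C, supernatants had been pre-incubated at pH 7.0-9.7 for 1-18 h at 37° C.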

Data set [2] is described as follows: HTP-analysis of supernatants pretreated with acid (MUGal hydrolysis). The note with it: activity of the variant/activity of Rd3BB (SEQ ID NO: 13); challenge at pH 3.7. The method in brief:
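Supernatants from INVSc1 yeast secreting GLA variants were challenged at 37° C. for 1-3 h in McIlvaine buffer at pH 3.3-4.3. Residual activity was then measured on 4 mM MUGal substrate stock at pH 4.8 with citrate buffer pH 4.3, over 30-180 min at 37° C. Reactions were quenched with sodium carbonate and read by fluorescence (Ex 355/Em 448 nm).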

Data set [3] can be described thus: HTP-analysis of yeast culture supernatants, no challenge (MUGal hydrolysis). The conditions noted are these: activity of the variant/activity of Rd3BB (SEQ ID NO: 13). The method in brief:
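GLA variants expressed in yeast INVSc1, secreted into SD-Ura broth over 66-84 h at 30° C; clarified supernatants tested without challenge. Supernatant mixed with McIlvaine buffer pH 4.8 and 2 mM MUGal (citrate/KCl, pH 4.6), 37° C for 30-180 min, carbonate-quenched, fluorescence Ex 355/Em 448 nm.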

B1: 554 (protein)
chain: LDNGLARTPTMGWLHWERFMCNLDCQEEPDSCISEKLFMEMAERMVSEGWKDAGYEYLCIDDCWMAPQRDSEGRLQADPQRFPHGIRQLANHVHSKGLKLGIYADVGNKTCAGFPGSFGYYDIDAQTFADWGVDLLKFDGCYCDSLENLADGYKHMSLALNRTGRSIVYSCEWPLYMWPFQKPNYTEIRQYCNHWRNFADIDDSWASIKSILDWTSRNQERIVDVAGPGGWNDPDMLVIGNFGLSWDQQVTQMALWAIMAAPLFMSNDLRHISPQAKALLQDKDVIAINQDPLGKQGYQLRKGDNFEVWERPLSGDAWAVAIINRQEIGGPRSYTIPVASLGKGVGCNPACFITQLLPVKRQLGFYNWTSRLKSHINPTGTVLLQLENTMQMSLKDLL
modifications: Synthetic Polypeptide sequence of Variant No. 554 of mature Human GLA
B1: in data set [1], the “Relative Activity of GLA Variants After Challenge at pH 9.7” value (from here on “Relative Activity … at pH 9.7”) is listed as “++ (++ = >5 to 10 relative activity over Rd3BB (SEQ ID NO: 13))”. Also, the “Relative Activity of GLA Variants After Challenge at pH 3.7” value (shortened to “Relative Activity … at pH 3.7”) in data set [2] was “+ (+ = 1.5 to 5 relative activity over Rd3BB (SEQ ID NO: 13))”. Also, the “Relative Activity of GLA Variants After No Challenge (NC)” value in data set [3] is given as “+ (+ = 1.5 to 5 relative activity over Rd3BB (SEQ ID NO: 13))”.

B2: 561 (protein)
chain: LDNGLARTPTMGWLHWERFMCNLDCQEEPDSCISEKLFMEMAERMVSEGWKDAGYEYLCIDDCWMAPQRDSEGRLQADPQRFPHGIRQLANHVHSKGLKLGIYADVGNKTCAGFPGSFGYYDIDAQTFADWGVDLLKFDGCYCDSLENLADGYKHMSLALNRTGRSIVYSCEWPLYMWPFQKPNYTEIRQYCNHWRNFADIDDSWASIKSILDWTSRNQERIVDVAGPGGWNDPDMLVIGNFGLSWDQQVTQMALWAIMAAPLFMSNDLRHISPQAKALLQDKDVIAINQDPLGKQGYQLRKGDNFEVWERPLSGDAWAVAIINRQEIGGPRSYTIPVASLGKGVACNPACFITQLLPVKRQLGFYNLTSRLKSHINPTGTVLLQLENTMQMSLKDLL
modifications: Synthetic Polypeptide sequence of Variant No. 561 of mature Human GLA
For B2, the “Relative Activity … at pH 9.7” value in data set [1] is “++ (++ = >5 to 10 relative activity over Rd3BB (SEQ ID NO: 13))”. Also, the “Relative Activity … at pH 3.7” value in data set [2] is “+ (+ = 1.5 to 5 relative activity over Rd3BB (SEQ ID NO: 13))”. Also, in data set [3], the “Relative Activity of GLA Variants After No Challenge (NC)” value was “+ (+ = 1.5 to 5 relative activity over Rd3BB (SEQ ID NO: 13))”.

B3: 555 (protein)
chain: LDNGLARTPTMGWLHWERFMCNLDCQEEPDSCISEKLFMEMAERMVSEGWKDAGYEYLCIDDCWMAPQRDSEGRLQADPQRFPHGIRQLANHVHSKGLKLGIYADVGNKTCAGFPGSFGYYDIDAQTFADWGVDLLKFDGCYCDSLENLADGYKHMSLALNRTGRSIVYSCEWPLYMWPFQKPNYTEIRQYCNHWRNFADIDDSWASIKSILDWTSRNQERIVDVAGPGGWNDPDMLVIGNFGLSWDQQVTQMALWAIMAAPLFMSNDLRHISPQAKALLQDKDVIAINQDPLGKQGYQLRKGDNFEVWERPLSGDAWAVAIINRQEIGGPRSYTIPVASLGKAVACNPACFITQLLPVKRQLGFYNWTSRLKSHINPTGTVLLQLENTMQMSLKDLL
modifications: Synthetic Polypeptide sequence of Variant No. 555 of mature Human GLA
B3: in data set [1], the “Relative Activity … at pH 9.7” value is given as “+ (+ = 1.5 to 5 relative activity over Rd3BB (SEQ ID NO: 13))”. Besides, the “Relative Activity … at pH 3.7” value in data set [2] is “+ (+ = 1.5 to 5 relative activity over Rd3BB (SEQ ID NO: 13))”. In addition, in data set [3], the “Relative Activity of GLA Variants After No Challenge (NC)” value was “+ (+ = 1.5 to 5 relative activity over Rd3BB (SEQ ID NO: 13))”.

B4: 558 (protein)
chain: LDNGLARTPTMGWLHWERFMCNLDCQEEPDSCISEKLFMEMAERMVSEGWKDAGYEYLCIDDCWMAPQRDSEGRLQADPQRFPHGIRQLANHVHSKGLKLGIYADVGNKTCAGFPGSFGYYDIDAQTFADWGVDLLKFDGCYCDSLENLADGYKHMSLALNRTGRSIVYSCEWPLYMWPFQKPNYTEIRQYCNHWRNFADIDDSWASIKSILDWTSRNQERIVDVAGPGGWNDPDMLVIGNFGLSWDQQVTQMALWAIMAAPLFMSNDLRHISPQAKALLQDKDVIAINQDPLGKQGYQLRKGDNFEVWERPLSGDAWAVAIINRQEIGGPRSYTIPVASLGKGVACNPACFLTQLLPVKRQLGFYNWTSRLKSHINPTGTVLLQLENTMQMSLKDLL
modifications: Synthetic Polypeptide sequence of Variant No. 558 of mature Human GLA
With B4, in data set [1], the “Relative Activity … at pH 9.7” value is recorded as “+ (+ = 1.5 to 5 relative activity over Rd3BB (SEQ ID NO: 13))”. Further, in data set [2], the “Relative Activity … at pH 3.7” value was “− (− = <1.5 relative activity to Rd3BB (SEQ ID NO: 13))”. Further, the “Relative Activity of GLA Variants After No Challenge (NC)” value in data set [3] is “− (− = <1.5 relative activity to Rd3BB (SEQ ID NO: 13))”.

B5: 560 (protein)
chain: LDNGLARTPTMGWLHWERFMCNLDCQEEPDSCISEKLFMEMAERMVSEGWKDAGYEYLCIDDCWMAPQRDSEGRLQADPQRFPHGIRQLANHVHSKGLKLGIYADVGNKTCAGFPGSFGYYDIDAQTFADWGVDLLKFDGCYCDSLENLADGYKHMSLALNRTGRSIVYSCEWPLYMWPFQKPNYTEIRQYCNHWRNFADIDDSWASIKSILDWTSRNQERIVDVAGPGGWNDPDMLVIGNFGLSWDQQVTQMALWAIMAAPLFMSNDLRHISPQAKALLQDKDVIAINQDPLGKQGYQLRKGDNFEVWERPLSGDAWAVAIINRQEIGGPRSYTIPVASLGKGVACNPACFITQLLPVKRQLGFYNATSRLKSHINPTGTVLLQLENTMQMSLKDLL
modifications: Synthetic Polypeptide sequence of Variant No. 560 of mature Human GLA
Turning to B5, the “Relative Activity … at pH 9.7” value in data set [1] is “++ (++ = >5 to 10 relative activity over Rd3BB (SEQ ID NO: 13))”. Also, in data set [2], the “Relative Activity … at pH 3.7” value was “++ (++ = >5 to 10 relative activity over Rd3BB (SEQ ID NO: 13))”. Also, the “Relative Activity of GLA Variants After No Challenge (NC)” value in data set [3] is recorded as “+ (+ = 1.5 to 5 relative activity over Rd3BB (SEQ ID NO: 13))”.

B6: 557 (protein)
chain: LDNGLARTPTMGWLHWERFMCNLDCQEEPDSCISEKLFMEMAERMVSEGWKDAGYEYLCIDDCWMAPQRDSEGRLQADPQRFPHGIRQLANHVHSKGLKLGIYADVGNKTCAGFPGSFGYYDIDAQTFADWGVDLLKFDGCYCDSLENLADGYKHMSLALNRTGRSIVYSCEWPLYMWPFQKPNYTEIRQYCNHWRNFADIDDSWASIKSILDWTSRNQERIVDVAGPGGWNDPDMLVIGNFGLSWDQQVTQMALWAIMAAPLFMSNDLRHISPQAKALLQDKDVIAINQDPLGKQGYQLRKGDNFEVWERPLSGDAWAVAIINRQEIGGPRSYTIPVASLGKSVACNPACFITQLLPVKRQLGFYNWTSRLKSHINPTGTVLLQLENTMQMSLKDLL
modifications: Synthetic Polypeptide sequence of Variant No. 557 of mature Human GLA
For B6, the “Relative Activity … at pH 9.7” value in data set [1] is on record as “++ (++ = >5 to 10 relative activity over Rd3BB (SEQ ID NO: 13))”. For the same molecule, the “Relative Activity … at pH 3.7” value in data set [2] is “+ (+ = 1.5 to 5 relative activity over Rd3BB (SEQ ID NO: 13))”. In data set [3], the “Relative Activity of GLA Variants After No Challenge (NC)” value is recorded as “+ (+ = 1.5 to 5 relative activity over Rd3BB (SEQ ID NO: 13))”.

B7: 559 (protein)
chain: LDNGLARTPTMGWLHWERFMCNLDCQEEPDSCISEKLFMEMAERMVSEGWKDAGYEYLCIDDCWMAPQRDSEGRLQADPQRFPHGIRQLANHVHSKGLKLGIYADVGNKTCAGFPGSFGYYDIDAQTFADWGVDLLKFDGCYCDSLENLADGYKHMSLALNRTGRSIVYSCEWPLYMWPFQKPNYTEIRQYCNHWRNFADIDDSWASIKSILDWTSRNQERIVDVAGPGGWNDPDMLVIGNFGLSWDQQVTQMALWAIMAAPLFMSNDLRHISPQAKALLQDKDVIAINQDPLGKQGYQLRKGDNFEVWERPLSGDAWAVAIINRQEIGGPRSYTIPVASLGKGVACNPACFITQLLPVKRQLGFYNWTSRWKSHINPTGTVLLQLENTMQMSLKDLL
modifications: Synthetic Polypeptide sequence of Variant No. 559 of mature Human GLA
Take B7: in data set [1], the “Relative Activity … at pH 9.7” value is given as “++ (++ = >5 to 10 relative activity over Rd3BB (SEQ ID NO: 13))”. Besides, in data set [2], the “Relative Activity … at pH 3.7” value is given as “+ (+ = 1.5 to 5 relative activity over Rd3BB (SEQ ID NO: 13))”. Moreover, the “Relative Activity of GLA Variants After No Challenge (NC)” value in data set [3] is listed as “+ (+ = 1.5 to 5 relative activity over Rd3BB (SEQ ID NO: 13))”.

B8: 556 (protein)
chain: LDNGLARTPTMGWLHWERFMCNLDCQEEPDSCISEKLFMEMAERMVSEGWKDAGYEYLCIDDCWMAPQRDSEGRLQADPQRFPHGIRQLANHVHSKGLKLGIYADVGNKTCAGFPGSFGYYDIDAQTFADWGVDLLKFDGCYCDSLENLADGYKHMSLALNRTGRSIVYSCEWPLYMWPFQKPNYTEIRQYCNHWRNFADIDDSWASIKSILDWTSRNQERIVDVAGPGGWNDPDMLVIGNFGLSWDQQVTQMALWAIMAAPLFMSNDLRHISPQAKALLQDKDVIAINQDPLGKQGYQLRKGDNFEVWERPLSGDAWAVAIINRQEIGGPRSYTIPVASLGKDVACNPACFITQLLPVKRQLGFYNWTSRLKSHINPTGTVLLQLENTMQMSLKDLL
modifications: Synthetic Polypeptide sequence of Variant No. 556 of mature Human GLA
Consider B8, for which, in data set [1], the “Relative Activity … at pH 9.7” value was “+ (+ = 1.5 to 5 relative activity over Rd3BB (SEQ ID NO: 13))”. In addition, the “Relative Activity … at pH 3.7” value in data set [2] is “− (− = <1.5 relative activity to Rd3BB (SEQ ID NO: 13))”. For the same molecule, in data set [3], the “Relative Activity of GLA Variants After No Challenge (NC)” value was “− (− = <1.5 relative activity to Rd3BB (SEQ ID NO: 13))”.

For the origin of these results see US11278600B2, “Human alpha-galactosidase variants” (Codexis, Inc., priority 2014, dated 2022).
